Measurements taken from patent US20130273029A1 (Novartis, published 2013).
Changes are numbered by the printed parent chain.

B1: MOR13752 (antibody, human IgG1, kappa, V domains shown)
VH: QVQLVQSGAEVKKPGESLKISCKGSGYSFTNYWVAWVRQMPGKGLEWMGIIYPGGSDTIYSPSFQGQVTISADKSISTAYLQWSSLKASDTAMYYCARVHIIQPPSAWSYNAMDVWGQGTLVTVSS
VL: DIQMTQSPSSLSASVGDRVTITCRASQSISTYLNWYQQKPGKAPKLLIFGASNLQSGVPSRFSGSGSGTDFTLTISSLQPEDFATYYCQQSITELFTFGQGTKVEIKR
notes: tested as IgG
B2: MOR12923 (antibody, human IgG1, kappa, V domains shown)
VH: B1 VH with Y32S, G55N
VL: B1 VL with I92M, T93Y, E94L, L95P
B3: MOR12924 (antibody, human IgG1, kappa, V domains shown)
VH: B1 VH with Y32S, G55N
VL: B1 VL with I92V, T93W, L95P, F96A
B4: MOR13754 (antibody, human IgG1, kappa, V domains shown)
VH: B1 VH with N31S
VL: B1 VL
notes: tested as IgG
B5: MOR13761 (antibody, human IgG1, kappa, V domains shown)
VH: B1 VH with N31Q, Y32T, G55Q
VL: B1 VL
notes: tested as IgG
B6: MOR13756 (antibody, human IgG1, kappa, V domains shown)
VH: B1 VH with N31L, Y32T, G55Q
VL: B1 VL
notes: tested as IgG
B7: MOR13765 (antibody, human IgG1, kappa, V domains shown)
VH: B1 VH with N31G, Y32S, G55T
VL: B1 VL
notes: tested as IgG

Experiments:
[1] = target: T1, Human HER3, endogenous, on human cancer cell lines (SK-Br-3, MCF7, BT-474) (human, UniProt P21860 20-1342); assay: cell-based or functional assay
T1 sequence (P21860 20-1342): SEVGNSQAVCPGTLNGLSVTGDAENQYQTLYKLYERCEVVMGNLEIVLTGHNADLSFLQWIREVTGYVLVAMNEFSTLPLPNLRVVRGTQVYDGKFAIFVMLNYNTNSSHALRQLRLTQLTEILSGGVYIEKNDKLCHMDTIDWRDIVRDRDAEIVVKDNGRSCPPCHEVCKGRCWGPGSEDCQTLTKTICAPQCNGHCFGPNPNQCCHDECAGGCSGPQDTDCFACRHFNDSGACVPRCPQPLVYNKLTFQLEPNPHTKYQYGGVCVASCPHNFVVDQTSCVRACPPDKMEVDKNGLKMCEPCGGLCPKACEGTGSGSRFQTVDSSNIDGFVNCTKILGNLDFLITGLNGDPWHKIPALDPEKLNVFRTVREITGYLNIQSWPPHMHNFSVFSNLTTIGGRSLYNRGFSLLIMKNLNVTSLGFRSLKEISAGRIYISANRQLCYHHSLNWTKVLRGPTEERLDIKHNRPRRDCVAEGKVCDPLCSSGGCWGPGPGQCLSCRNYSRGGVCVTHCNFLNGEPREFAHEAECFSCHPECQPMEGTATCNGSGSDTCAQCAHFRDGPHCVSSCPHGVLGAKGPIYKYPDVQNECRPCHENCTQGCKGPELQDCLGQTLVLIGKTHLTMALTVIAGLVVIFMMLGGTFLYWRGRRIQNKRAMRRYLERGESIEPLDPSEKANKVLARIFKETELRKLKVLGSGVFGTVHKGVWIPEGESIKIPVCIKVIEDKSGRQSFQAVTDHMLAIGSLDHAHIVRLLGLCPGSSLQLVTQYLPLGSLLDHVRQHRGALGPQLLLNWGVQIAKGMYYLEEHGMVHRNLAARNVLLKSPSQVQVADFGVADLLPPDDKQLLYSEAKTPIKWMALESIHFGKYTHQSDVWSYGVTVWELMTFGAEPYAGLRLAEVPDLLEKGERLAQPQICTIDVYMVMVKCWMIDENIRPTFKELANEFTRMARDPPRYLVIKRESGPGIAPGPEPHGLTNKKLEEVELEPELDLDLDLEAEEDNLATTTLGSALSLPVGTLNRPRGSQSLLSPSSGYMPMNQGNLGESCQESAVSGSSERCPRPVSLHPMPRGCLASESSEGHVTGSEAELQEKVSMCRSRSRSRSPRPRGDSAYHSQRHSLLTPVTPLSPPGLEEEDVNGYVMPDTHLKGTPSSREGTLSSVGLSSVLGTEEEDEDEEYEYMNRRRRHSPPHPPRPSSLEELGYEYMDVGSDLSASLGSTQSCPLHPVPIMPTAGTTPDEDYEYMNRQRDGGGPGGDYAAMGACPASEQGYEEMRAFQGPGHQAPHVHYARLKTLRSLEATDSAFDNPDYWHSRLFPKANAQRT

[2] = target: T1, Human HER3, endogenous, on human cancer …; assay: cell-based or functional assay; remark: listed apart in the source
[3] = target: T2, Hu HER3: CD33-[Human HER3, residues 20-640]-TAG (human, UniProt P21860 20-640); assay: SET, IgG vs soluble HER3-Tag
T2 construct: also called hu HER3-Tag; HER3-Tag; not shown: C-terminal TAG (e.g., FLAG TAG)
T2 sequence (P21860 20-640): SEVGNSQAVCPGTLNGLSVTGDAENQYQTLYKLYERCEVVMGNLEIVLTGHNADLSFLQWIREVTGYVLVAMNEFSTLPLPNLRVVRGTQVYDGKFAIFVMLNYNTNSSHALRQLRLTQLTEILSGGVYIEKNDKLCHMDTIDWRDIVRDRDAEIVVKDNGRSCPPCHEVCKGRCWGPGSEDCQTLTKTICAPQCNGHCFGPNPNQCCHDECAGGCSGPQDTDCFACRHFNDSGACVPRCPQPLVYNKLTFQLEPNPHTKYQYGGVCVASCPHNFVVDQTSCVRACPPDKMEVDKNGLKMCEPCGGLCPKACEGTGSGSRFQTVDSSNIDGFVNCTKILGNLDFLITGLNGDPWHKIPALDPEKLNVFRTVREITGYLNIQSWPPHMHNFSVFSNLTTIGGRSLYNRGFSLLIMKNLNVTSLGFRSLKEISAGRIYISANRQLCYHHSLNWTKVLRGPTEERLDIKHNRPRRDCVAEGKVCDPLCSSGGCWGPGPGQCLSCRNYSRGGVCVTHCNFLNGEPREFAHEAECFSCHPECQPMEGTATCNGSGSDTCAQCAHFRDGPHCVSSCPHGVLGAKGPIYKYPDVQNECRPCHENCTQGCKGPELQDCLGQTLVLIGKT
Description: Affinity determination in solution was essentially performed as previously described (Friguet et al., (1985) J Immunol Methods 77:305-19). In order to improve the sensitivity and accuracy of the SET method, it was transferred from classical ELISA to ECL based technology (Haenel et al., (2005) Anal Biochem 339:182-84).
The data was evaluated with XLfit software (ID Business Solutions) applying customized fitting models.
Antibody affinity was determined by solution equilibrium titration (SET) as described above. The results are summarized in Table 3 and example titration curves for MOR12616 and MOR12925 are contained in FIG. 1.

[4] = target: T1, Human HER3, endogenous, on human cancer …; assay: cell-based or functional assay; remark: listed apart in the source

| Binder | BT474 pHER3 % inhibition [1] [%] | BT474 pHER3 IC50 [1] [pM] | SK-Br-3 pHER3 % inhibition [1] [%] | SK-Br-3 pHER3 IC50 [1] [pM] | BT-474 proliferation % inhibition [2] [%] | BT-474 proliferation IC50 [2] [nM] | SK-Br-3 proliferation % inhibition [2] [%] | SK-Br-3 proliferation IC50 [2] [pM] | Kd [3] [nM] | BT-474 pAkt (S473) % inhibition [4] [%] | BT-474 pAkt (S473) IC50 [4] [pM] | SK-Br-3 pAkt (S473) % inhibition [4] [%] | SK-Br-3 pAkt (S473) IC50 [4] [pM] | MCF7 pHER3 % inhibition [1] [%] | MCF7 pHER3 IC50 [1] [pM] | MCF7 proliferation % inhibition [2] [%] | MCF7 proliferation IC50 [2] [pM] | MCF7 pAkt (S473) % inhibition [4] [%] | MCF7 pAkt (S473) IC50 [4] [pM] |
| --- | --- | --- | --- | --- | --- | --- | --- | --- | --- | --- | --- | --- | --- | --- | --- | --- | --- | --- | --- |
| B1 | 45 | 4240 | 71 | 1000 | 22 | 42.8 | 40 | 3000 | 0.096 | 76 | 39100 | 86 | 734 |  |  |  |  |  |  |
| B2 | 61 | 1050 | 74 | 70 |  |  | 42 | 62 |  |  |  |  |  | 83 | 540 | 29 | 266 |  |  |
| B3 | 62 | 1590 | 76 | 123 |  |  | 44 | 533 |  |  |  |  |  | 80 | 631 | 23 | 497 |  |  |
| B4 | 49 | 3900 | 63 | 606 | 17 | 8.01 | 40 | 6470 | 0.29 | 64 |  | 84 | 465 |  |  |  |  |  |  |
| B5 | 56 | 364 | 76 | 62 | 36 | 0.56 | 48 | 134 | 0.028 | 83 |  | 86 | 52 |  |  |  |  |  |  |
| B6 | 66 | 322 | 78 | 95 | 42 | 0.71 | 50 | 97 | 0.025 | 86 | 189 | 90 | 107 |  |  |  |  |  |  |
| B7 | 61 | 806 | 79 | 227 | 27 | 3.1 | 46 | 732 | 0.064 | 73 | 1180 | 90 | 113 | 71 | 374 |  |  | 71 | 412 |
